The subject of data set [1] is NXF1ΔNΔUBA+3A;NXT1 (p15) (Homo sapiens;Homo sapiens). The experiment in a line: ITC. (Isothermal titration calorimetry measures the heat released or taken up as one component is titrated into another.)
Data set [2] deals with the molecule itself. Nature of the data set: crystal structure; crystals of the purified NXF1^ΔNΔUBA:NXT1 complex, 18°C, 9% PEG 6000, 1 M LiCl, 0.1 M Na citrate pH 5.1; P1, 3.4 Å, two copies of the complex in the asymmetric unit.

For the molecule full-length CTE-RNA, the binding signal (fold weaker than wild type) in data set [1] amounted to 2.5.

B1: NXF1^ΔNΔUBA:NXT1 complex (complex, human)
chain 1: VRRDRAPPERGGAGTSQDGTSKNWFKITIPYGRKYDKAWLLSMIQSKCSVPFTPIEFHYENTRAQFFVEDASTASALKAVNYKILDRENRRISIIINSSAPPHTILNELKPEQVEQLKLIMSKRYDGSQQALDLKGLRSDPDLVAQNIDVVLNRRSCMAATLRIIEENIPELLSLNLSNNRLYRLDDMSSIVQKAPNLKILNLSGNELKSERELDKIKGLKLEELWLDGNSLCDTFRDQSTYISAIRERFPKLLRLDGHELPPPIAFDVEAPTTLPPCKGSYFGTENLKSLVLHFLQQYYAIYDSGDRQGLLDAYHDGACCSLSIPFIPQNPARSSLAEYFKDSRNVKKLKDPTLRFRLLKHTRLNVVAFLNELPKTQHDVNSFVVDISAQTSTLLCFSVNGVFKEVDGKSRDSLRAFTRTFIAVPASNSGLCIVNDELFVRNASSEEIQRAFAMPAPTP
chain 2: ASVDFKTYVDQACRAAEEFVNVYYTTMDKRRRLLSRLYMGTATLVWNGNAVSGQESLSEFFEMLPSSEFQISVVDCQPVHDEATPSQTTVLVVICGSVKFEGNKQRDFNQNFILTAQASPSNTVWKIASDCFRFQDWAS
notes: also called NXF1:NXT1; TAP:p15
Consider B1, for which the stoichiometry N (as a rule, a count of units in the complex or per binding partner) in data set [2] came out at 2.

Source of the values: publication PMC4330390 (Nucleic Acids Research, 2015).
